The text below walks through data of paper PMC11818384, “Structural Characteristics and Properties of the RNA-Binding Protein hnRNPK at Multiple Physical States” (International Journal of Molecular Sciences, 2025).

Data set [1] deals with the molecule itself. Nature of the data set: SEC-MALS; SEC-LS (RALS, RI, UV) on Superdex 200 Increase 10/300 run at room temperature; hnRNPK sample kept at 4 °C (vial holder at 4 °C), low concentration.
Data set [2] deals with the molecule itself. Nature of the data set: SEC-MALS; SEC-LS (RALS, RI, UV) on Superdex 200 Increase 10/300 at room temperature; hnRNPK sample incubated at room temperature. A general note: Size exclusion chromatography separates by hydrodynamic size, large species first.

“And” between values parts separate entries of the source, which are not always exact repeats. Identical values can stand only once.

B1: Heterogeneous nuclear ribonucleoprotein K (hnRNPK), full-length wild type with an additional N-terminal glycine (natural protein)
chain: not shown
notes: additional glycine residue at the N-terminus, told in words; heterogeneous nuclear ribonucleoprotein K, full-length wild type; theoretical molar mass with the extra glycine 51,033 Da; also called H-hnRNPK; hydrogenated hnRNPK; source: E. coli Rosetta2 (DE3), purified (Ni Hi-trap, TEV cleavage, second Hi-trap, Superdex 200); not shown: His6, N-terminal, cleaved; eGFP, N-terminal, cleaved
For the protein B1, the “stoichiometry N” value in data set [1] is 1.98 hnRNPK molecules per particle (measured MM : theoretical MM); in data set [2] it was 2.88 hnRNPK molecules per particle (measured MM : theoretical MM) and 1.53 hnRNPK molecules per particle (measured MM : theoretical MM).
